The source of these data is PMC8791620 (Science Advances, 2022).

The chains are these.
T1: Trs33 (subunit of core TRAPP/TRAPPI in TRAPPII) (S. cerevisiae, UniProt Q99394 1-268)
T1 sequence (looked up): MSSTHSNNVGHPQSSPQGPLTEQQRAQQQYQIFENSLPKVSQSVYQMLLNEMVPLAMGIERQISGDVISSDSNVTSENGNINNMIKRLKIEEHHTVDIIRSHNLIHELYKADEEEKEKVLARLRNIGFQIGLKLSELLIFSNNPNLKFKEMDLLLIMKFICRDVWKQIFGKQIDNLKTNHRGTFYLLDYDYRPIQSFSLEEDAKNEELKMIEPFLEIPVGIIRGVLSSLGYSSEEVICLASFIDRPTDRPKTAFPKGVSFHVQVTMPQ

T2: Trs23 (subunit of core TRAPP/TRAPPI in TRAPPII) (S. cerevisiae, UniProt Q03784 1-219)
T2 sequence (looked up): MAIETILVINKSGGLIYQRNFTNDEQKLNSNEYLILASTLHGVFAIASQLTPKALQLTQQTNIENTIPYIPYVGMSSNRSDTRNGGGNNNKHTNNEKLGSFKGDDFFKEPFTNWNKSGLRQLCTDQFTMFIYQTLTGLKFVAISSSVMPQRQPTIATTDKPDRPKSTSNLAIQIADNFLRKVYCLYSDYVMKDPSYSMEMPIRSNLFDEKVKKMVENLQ

T3: Trs120 (3xFLAG-tagged, subunit of TRAPPII) (S. cerevisiae, UniProt Q04183 1-1289)
T3 sequence: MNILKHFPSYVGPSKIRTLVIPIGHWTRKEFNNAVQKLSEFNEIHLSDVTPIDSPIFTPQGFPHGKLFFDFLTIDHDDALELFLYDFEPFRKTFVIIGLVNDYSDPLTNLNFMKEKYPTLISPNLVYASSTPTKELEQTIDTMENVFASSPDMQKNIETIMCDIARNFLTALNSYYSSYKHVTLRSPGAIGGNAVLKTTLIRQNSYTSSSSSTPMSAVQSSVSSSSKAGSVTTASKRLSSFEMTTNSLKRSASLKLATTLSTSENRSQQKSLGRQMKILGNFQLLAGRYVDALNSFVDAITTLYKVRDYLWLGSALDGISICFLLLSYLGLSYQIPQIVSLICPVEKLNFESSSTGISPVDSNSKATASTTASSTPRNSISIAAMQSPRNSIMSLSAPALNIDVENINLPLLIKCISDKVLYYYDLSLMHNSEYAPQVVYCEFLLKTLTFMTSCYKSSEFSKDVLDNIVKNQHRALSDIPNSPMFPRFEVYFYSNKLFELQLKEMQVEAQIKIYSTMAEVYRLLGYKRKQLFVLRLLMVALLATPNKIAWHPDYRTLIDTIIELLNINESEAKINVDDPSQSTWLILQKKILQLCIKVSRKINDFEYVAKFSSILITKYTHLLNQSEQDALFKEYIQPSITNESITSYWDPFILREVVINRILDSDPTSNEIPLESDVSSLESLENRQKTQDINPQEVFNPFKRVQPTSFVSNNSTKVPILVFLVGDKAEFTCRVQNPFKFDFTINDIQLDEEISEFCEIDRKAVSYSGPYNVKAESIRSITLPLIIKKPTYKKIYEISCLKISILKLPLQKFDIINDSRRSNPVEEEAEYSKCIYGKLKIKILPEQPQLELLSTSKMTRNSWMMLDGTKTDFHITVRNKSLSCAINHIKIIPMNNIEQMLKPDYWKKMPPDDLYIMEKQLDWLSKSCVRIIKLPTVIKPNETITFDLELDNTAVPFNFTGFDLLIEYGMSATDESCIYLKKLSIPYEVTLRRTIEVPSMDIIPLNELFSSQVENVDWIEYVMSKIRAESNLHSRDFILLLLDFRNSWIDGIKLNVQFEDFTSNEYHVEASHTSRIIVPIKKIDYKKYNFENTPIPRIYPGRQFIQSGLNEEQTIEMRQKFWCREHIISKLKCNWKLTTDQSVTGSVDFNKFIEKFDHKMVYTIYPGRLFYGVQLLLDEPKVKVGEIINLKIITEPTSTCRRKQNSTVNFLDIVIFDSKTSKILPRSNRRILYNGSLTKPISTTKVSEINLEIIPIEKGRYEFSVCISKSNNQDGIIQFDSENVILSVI

B1: Bet3 (subunit of core TRAPP/TRAPPI in TRAPPII) (natural protein, S. cerevisiae, UniProt P36149 1-193, looked up)
chain: MVSTTQSRSLKAMGEEIWKNKTEKINTELFTLTYGSIVAQLCQDYERDFNKVNDHLYSMGYNIGCRLIEDFLARTALPRCENLVKTSEVLSKCAFKIFLNITPNITNWSHNKDTFSLILDENPLADFVELPMDAMKSLWYSNILCGVLKGSLEMVQLDCDVWFVSDILRGDSQTEIKVKLNRILKDEIPIGED
B2: His-sumo-Ypt32 (wild type) (enzyme, S. cerevisiae, UniProt P51996 1-222, looked up)
chain: MSNEDYGYDYDYLFKIVLIGDSGVGKSNLLSRFTTDEFNIESKSTIGVEFATRTIEVENKKIKAQIWDTAGQERYRAITSAYYRGAVGALIVYDISKSSSYENCNHWLTELRENADDNVAVGLIGNKSDLAHLRAVPTDEAKNFAMENQMLFTETSALNSDNVDKAFRELIVAIFQMVSKHQVDLSGSGTNNMGSNGAPKGPTISLTPAPKEDKKKKSSNCC
B3: Trs31 (subunit of core TRAPP/TRAPPI in TRAPPII) (natural protein, S. cerevisiae, UniProt Q03337 1-283, looked up)
chain: MSQRIIQPSASDQQFPGKSDGYEYTVGPKQAITSEASTTYIPSRIYSESLLFKRQEASLSAMAFLFQEMISQLHRTCKTAGDFETKLSDYGHNIGIRLLELLNFRASVSPSSLPRASAFLSQNESSSKLSNASNSPGMLANSSTATSASANERLQEKQTESLSNYITKMRRRDLKILDILQFIHGTLWSYLFNHVSDDLVKSSERDNEYMIVDNFPTLTQFIPGENVSCEYFVCGIIKGFLFNAGFPCGVTAHRMPQGGHSQRTVYLIQFDRQVLDREGLRFG
B4: Bet5 (subunit of core TRAPP/TRAPPI in TRAPPII) (natural protein, S. cerevisiae, UniProt Q03630 1-159, looked up)
chain: MGIYSFWIFDRHCNCIFDREWTLASNSASGTINSKQNEEDAKLLYGMIFSLRSITQKLSKGSVKNDIRSISTGKYRVHTYCTASGLWFVLLSDFKQQSYTQVLQYIYSHIYVKYVSNNLLSPYDFAENENEMRGQGTRKITNRNFISVLESFLAPMVNQ

The target of experiment [1] is T1, Trs33 (subunit of core TRAPP/TRAPPI in …). As to the kind of experiment: cryo-EM structure.
Experiment [2] has as its target T2, Trs23 (subunit of core TRAPP/TRAPPI in …). Kind of experiment: cryo-EM structure.
Experiment [3] addresses B3. Kind of experiment: cryo-EM structure.
Experiment [4] concerns the target B3. As to the kind of experiment: cryo-EM structure. The source holds these as a separate data set.
The target of experiment [5] is T3, Trs120 (3xFLAG-tagged, subunit of …). Kind of experiment: cross-linking.
For experiment [6], the target named is B1. As to the kind of experiment: cryo-EM structure.

Where two headings read alike, the source gives them in different places.

On to B1, for which the binding result in experiment [1], in experiment [2] and in experiment [3] was “binds” each time.
Turning to B2, the binding result in experiment [4] is recorded as “binds”.
Take B3: the binding result in experiment [5] is listed as “binds”.
For the molecule B4, the binding result in experiment [6] and in experiment [2] was “binds” in each case.
